Measurements published in the RNAGym collection of RNA variant scans (doi:10.1093/molbev/msab373).

B1: Azoarcus group I ribozyme (parent)
chain: GUGCCUUGCGCCGGGAAACCACGCAAGGGAUGGUGUCAAAUUCGGCGAAACCUAAGCGCCCGCCCGGGCGUAUGGCAACGCCGAGCCAAGCUUCGGCGCCUGCGCCGAUGAAGGUGUAGAGACUAGACGGCACCCACCUAAGGCAAACGCUAUGGUGAAGGCAUAGUCCAGGGAGUGGCGAAAGUCACACAAACCGG

Variants of: B1
Experiment: reverse-splicing fitness (ratio to wild type); higher = more active; in vitro selection; Mg2+ level not given
In short: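 An in vitro group I ribozyme library with randomized positions was T7-transcribed and gel-purified. In triplicate, 10 pmol RNA in EPPS pH 7.5 was reacted with 50 pmoles of a 30-nt RNA substrate for 1 h at 37 °C across several added MgCl2 levels (1–48 mM), then stopped with EDTA. Products were reverse transcribed from a substrate-complementary primer, PCR-amplified and sequenced (HiSeq 4000). Fitness is a variant's read proportion after selection over that before, normalised to wild type.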

Going from C82A A111U A120C A145U C150A C169G to C82A A111U A120C A145U C150A C169A, the reverse-splicing fitness rises from 0.00953 to 0.0109.

C82A A111U A120C A145U C150A C169U and C82A A111U A120C A145C C150G C169G U176A are the same in reverse-splicing fitness: 0.0109 for the first, 0.0109 for the second.

First: C82A A111U A120C A145C C150G C169G U176C
Second: C82A A111U A120C A145C C150G C169G U176G
The reverse-splicing fitness of the first is higher: 0.00882 for the first, 0.0065 for the second.

Compared with C82A A111U A120C A145C C150U C169U U176G, C82A A111U A120C A145C C150U C169U U176C is higher in reverse-splicing fitness: 0.00618 for the first, 0.0133 for the second.

First: C82A A111U A120C A145C C150U C169U U176A
Second: C82A A111U A120G A145C C150A C169A U176A
The reverse-splicing fitness of the first is higher: 0.0144 for the first, 0.0128 for the second.

Going from C82A A111U A120G A145C C150A C169A U176C to C82A A111U A120G A145C C150A C169A U176G, the reverse-splicing fitness falls from 0.00664 to 0.00551.

Going from C82A A111U A120G A145C C150G C169U U176G to C82A A111U A120G A145C C150G C169U U176C, the reverse-splicing fitness rises from 0.00584 to 0.0117.

Going from C82A A111U A120G A145C C150G C169U U176A to C82A A111U A120C A145C C150G U176A, the reverse-splicing fitness falls from 0.0132 to 0.00531.

Going from C82A A111U A120C A145C C150G U176G to C82A A111U A120C A145C C150G U176C, the reverse-splicing fitness rises from 0.0032 to 0.00974.

Going from C82A A111U A120C A145U C169G U176G to C82A A111U A120C A145U C169G U176C, the reverse-splicing fitness rises from 0.00642 to 0.0253.

First: C82A A111U A120C A145U C169G U176A
Second: C82A A111U A120C A145U C150U C169G U176A
The reverse-splicing fitness of the first is higher: 0.0204 for the first, 0.016 for the second.

Compared with C82A A111U A120C A145U C150U C169G U176C, C82A A111U A120C A145U C150U C169G U176G is lower in reverse-splicing fitness: 0.0244 for the first, 0.00736 for the second.

Compared with C82A A111U A120C A145U C150A U176G, C82A A111U A120C A145U C150A U176C is higher in reverse-splicing fitness: 0.00762 for the first, 0.0223 for the second.

Going from C82A A111U A120C A145U C150A U176A to C82A A111U A120C A145U U176G, the reverse-splicing fitness falls from 0.0108 to 0.00733.

Going from C82A A111U A120C A145U U176A to C82A A111U A120C A145U U176C, the reverse-splicing fitness rises from 0.0168 to 0.0276.

Compared with C82A A111G C169U U176G, C82A A111G C169U U176A is higher in reverse-splicing fitness: 0.00547 for the first, 0.0153 for the second.

Going from C82A A111G C169U U176C to C82A A111U A120G A145C C150A C169G U176G, the reverse-splicing fitness falls from 0.0142 to 0.00564.

Going from C82A A111U A120G A145C C150A C169G U176A to C82A A111U A120G A145C C150A C169G U176C, the reverse-splicing fitness falls from 0.0253 to 0.0151.

Going from C82A A111U A120C A145C C150A to C82A A111U A120C A145C C150G, the reverse-splicing fitness falls from 0.012 to 0.00984.

Compared with C82A A111U A120C A145C C150U, C82A A111U A120G A145C C150A C169U is lower in reverse-splicing fitness: 0.0149 for the first, 0.00834 for the second.

Compared with C82A A111U A120G A145C C150A C169G, C82A A111U A120G A145C C150A C169A is lower in reverse-splicing fitness: 0.00858 for the first, 0.00789 for the second.

First: C82A A111U A120C A145U C150A C169A U176C
Second: C82A A111U A120C A145U C150A C169A U176G
The reverse-splicing fitness of the first is higher: 0.0189 for the first, 0.00919 for the second.

First: C82A A111U A120C A145U C150A C169A U176A
Second: C82A A111U A120C A145G C169U U176G
The reverse-splicing fitness of the first is higher: 0.0231 for the first, 0.00584 for the second.

Going from C82A A111U A120C A145G C169U U176C to C82A A111U A120C A145G C169U U176A, the reverse-splicing fitness rises from 0.0156 to 0.0178.

Going from C82A A111U A120C C169G to C82A A111U A120C C169U, the reverse-splicing fitness rises from 0.00957 to 0.0143.

Compared with C82A A111U A120C C169A, C82A A111U A120C A145G C169G U176C is higher in reverse-splicing fitness: 0.00982 for the first, 0.0355 for the second.

Compared with C82A A111U A120C A145G C169G U176G, C82A A111U A120C A145G C169G U176A is higher in reverse-splicing fitness: 0.00647 for the first, 0.0259 for the second.

Going from C82A A111U A120C A145G C150U C169U U176C to C82A A111U A120C A145G C150U C169U U176A, the reverse-splicing fitness rises from 0.0148 to 0.0152.

Going from C82A A111U A120C A145G C150U C169U U176G to C82A A111U A120C C150A C169A, the reverse-splicing fitness rises from 0.00781 to 0.0122.

Going from C82A A111U A120C C150A C169U to C82A A111U A120C C150A C169G, the reverse-splicing fitness falls from 0.0129 to 0.0103.

Compared with C82A A111G C169G, C82A A111G C169A is lower in reverse-splicing fitness: 0.00926 for the first, 0.00855 for the second.

Going from C82A A111G C169U to C82A A111U A120C A145G C150U C169G, the reverse-splicing fitness falls from 0.0132 to 0.00957.

Compared with C82A A111U A120C A145G C150U C169A, C82A A111U A120C A145G C150U C169U is higher in reverse-splicing fitness: 0.0113 for the first, 0.0127 for the second.

Going from C82A A111U A120C A145U C150U C169A U176A to C82A A111U A120C A145U C150U C169A U176C, the reverse-splicing fitness falls from 0.0216 to 0.0168.

First: C82A A111U A120C A145U C150U C169A U176G
Second: C82A A111U A120C A145C C169U U176G
The reverse-splicing fitness of the first is higher: 0.00837 for the first, 0.00416 for the second.

Compared with C82A A111U A120C A145C C169U U176A, C82A A111U A120C A145C C169U U176C is lower in reverse-splicing fitness: 0.0168 for the first, 0.0149 for the second.

Compared with C82A A111U A120C A145C C150U C169G U176C, C82A A111U A120C A145C C150U C169G U176A is higher in reverse-splicing fitness: 0.0353 for the first, 0.0356 for the second.

First: C82A A111U A120C A145C C150U C169G U176G
Second: C82A A111U A120C A145C C150A C169G U176A
The reverse-splicing fitness of the first is lower: 0.00842 for the first, 0.0385 for the second.

Compared with C82A A111U A120C A145C C150A C169G U176G, C82A A111U A120C A145C C150A C169G U176C is higher in reverse-splicing fitness: 0.0101 for the first, 0.0348 for the second.

Going from C82A A111U A120C A145U C150G C169A U176C to C82A A111U A120C A145U C150G C169A U176A, the reverse-splicing fitness rises from 0.0116 to 0.0117.

First: C82A A111U A120C A145U C150G C169A U176G
Second: C82A A111U A120C A145U C150U U176G
The reverse-splicing fitness of the first is higher: 0.00766 for the first, 0.00684 for the second.

First: C82A A111U A120C A145U C150U U176A
Second: C82A A111U A120C A145U C150U U176C
The reverse-splicing fitness of the first is lower: 0.0138 for the first, 0.0191 for the second.
